B1: TEKT4 (parent)
chain: LREKLLEAEQSLRNLEDIHMSLEK
B2: CDC25A (parent)
chain: TVAGKHQDLKYISPEIMASVLNGK

Variants of: B1
Assay: protein stability index of a GFP-peptide fusion (GPS, HEK-293T) (PSI 1-6); higher = more stable
Conditions: c terminus: a fixed tail appended
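Note: lentivirally expressed fusions sorted by FACS into six bins by GFP to DsRed ratio, PSI derived from sequencing read proportions per bin multiplied by bin number.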

Protein stability index, by site and new letter:
S11: G 2.28; M 1.05; T 2.55; L 1.83; V 1.47; Y 1.83; K 2.08; D 2.57; I 4.94; H 2.75; A 1.5; P 4.21; F 1.96; W 1.48; Q 2.33
N14: C 2.26; H 1.77; W 1.35; P 2.04; K 2.27; D 2.27; E 3.99; R 2.78; V 2.56; G 2.71; S 2.07; L 1.64
Q10: Y 1.85; W 1.98
E23: D 2.27; I 1.88; R 3.15; H 2.21; G 1.58; F 2.3; M 2.39; K 2.74; T 1.71; Y 1.93; N 1.47; C 4.07; A 3.45; S 2.15; V 2.07; L 2.65
L12: K 3.98; D 5.05; F 1.69; S 3.62; Y 2.03; M 2.97; V 3.3; G 3.89; E 4.97; W 1.79; T 3.17; R 3.02; H 4.44; A 3.84; P 4.6; N 4.57
E16: H 1.59; P 2.71; N 1.94; A 1.41; R 2.12; I 2.7; L 1.47; W 1.18; D 2.35; K 2.3; T 2.21; S 2.25; C 1.33; M 1.93; Q 2.15; G 2.37; V 2.06
K24: S 2.35; Y 1.68; Q 2.39; L 1.93; F 1.25; C 2.09; N 2.13; I 1.81; G 2.52; H 4; T 2.98; P 2.03; R 2.44; E 2.53
R13: H 3.38; F 2.11; K 2.22; C 2.21; T 2.61; W 2.09; I 2.6; L 2.18; Y 2.11; P 2.45; S 1.89; Q 3.43; D 3.69; G 2.22; V 2.96; M 2.52
L15: G 2; E 2.71; W 1.93; D 1.55; Y 2.29; I 2.64; R 2.38; N 2.65; T 2.47; A 3.2; F 3.29; S 3.36; K 2.71; M 2.56; C 2.81; H 3.22; Q 2.64
D17: G 2.81; Y 1.45; P 2.7; C 2.46; S 2.33; M 2.42; N 1.62; T 2.27; F 1.79; H 2.29; L 1.89; Q 2.23; W 1.76; K 2.32; A 2.31; I 1.58
H19: I 1.81; E 2.91; D 3.48; N 2.93; V 2.51; R 2.42; S 3.43; L 1.96; F 1.83; P 3.26; C 2.96; A 1.76; G 2.02; T 2.63; K 2.8; Q 3.91; M 2.79
L22: S 2.65; E 2.98; T 3.05; A 3.01; N 3.22; R 3.2; Q 2.33; M 2.7; Y 2.08; I 2.81; H 2.89; W 1.55; C 3.73; V 2.09; G 2.4; F 1.98; K 3.54
I18: A 2.81; K 3.16; D 3.33; G 2.96; Y 2.3; T 3.28; R 2.63; E 1.69; S 3.84; Q 2.62; C 2.63; V 3.21; N 3.43; M 1.95; F 3.02; W 3.13
S21: W 2.38; L 1.59; V 2.35; G 3.25; P 2.82; T 2.81; M 1.75; E 2.35; R 3.24; K 2.37; C 1.56; D 1.9; F 2.63; N 2.6; Q 1.92; H 1.99
M20: N 2.25; K 2.07; L 2.58; W 2.55; I 2.86; C 3.03; R 2.36; A 3.28; G 3.51; E 2.17; T 2.98; D 2.71; Q 1.79; Y 3.15; F 1.72

Variants of: B2
Assay: as above
Conditions: c terminus: a fixed tail appended

Protein stability index: each site, then its substitutions
M17: T 3.22; D 3.89; S 4.12; L 2.64
I12: S 3.91; C 3.23; N 3.46; G 3.82; R 3.58
S13: I 2.19; C 2.43; Y 2.63; M 2.31; N 3.32; G 3.37; P 3.12
L9: R 3.51; H 3.65; A 3.44; N 3.72
L21: S 3.8; H 4.05; P 4.08; M 3.4; T 3.84
A3: F 2.56; V 3.38; K 3.41; E 3.39; T 3.31; Y 2.79
K10: D 3.85; Q 2.85; M 2.69; Y 1.76
N22: V 2.55; R 2.71; S 3.27; H 2.96; C 2.53; E 3.92; L 2.56
Q7: E 3.52; A 2.85; R 2.64; S 3.16; Y 2.49; F 2.3; G 3.08; W 2.36
V2: S 3.28; E 3.68; M 3.11
A18: T 3.74; V 2.54; R 2.71; C 3.11; P 3.6
Y11: R 3.59; A 3.29; M 3.16; F 2.77; E 4.09; W 2.78; N 3.86; D 4.38; L 3.26
K5: V 3.21; F 3.2
D8: A 2.65; Q 2.5; E 3.21
E15: W 1.76; C 2.25; G 3.08; N 2.95
V20: Q 3.68; S 4.11; I 2.63; K 3.73; W 2.84
G23: Y 2.35; E 3.69; F 2.37; I 2.48; T 3.25
T1: F 1.9; H 2.89; Y 3.42; A 3.23; N 3.69; Q 3.22; L 2.15
P14: M 2.02; E 3.49; R 2.91
S19: G 2.77; I 2.16
I16: Q 4.28; M 3.62; K 3.42; G 3.84
K24: A 2.67; C 2.42; P 3.26
G4: N 3.54; D 3.27
H6: K 3.27; L 2.13; Q 3.43; P 3.38; A 3.73
